In publication PMC3154745 (Chembiochem : a European journal of chemical biology, 2011):
Where two headings read alike, the source gives them in different places. Primed or numbered codes have the meaning given here. No end group written: not given here. fluorescein″ = fluorescein label at the N-terminus of the peptide; fluorescein = fluorescein group at the N-terminus

B1: HP1a-CSD (residues 131-206), wild type (domain or fragment, D. melanogaster, UniProt P05205 131-206, looked up)
chain: EQDTIPVSGSTGFDRGLEAEKILGASDNNGRLTFLIQFKGVDQAEMVPSSVANEKIPRMVIHFYEERLSWYSDNED
B2: HP1a-CSD W200A (residues 131-206) (domain or fragment, D. melanogaster, UniProt P05205 131-206, looked up)
chain: EQDTIPVSGSTGFDRGLEAEKILGASDNNGRLTFLIQFKGVDQAEMVPSSVANEKIPRMVIHFYEERLSAYSDNED
B6: HP1a-CSD S199E S202E double mutant (residues 131-206) (domain or fragment, D. melanogaster, UniProt P05205 131-206, looked up)
chain: EQDTIPVSGSTGFDRGLEAEKILGASDNNGRLTFLIQFKGVDQAEMVPSSVANEKIPRMVIHFYEERLEWYEDNED
B9: HP1a-CSD E195Q (residues 131-206) (domain or fragment, D. melanogaster, UniProt P05205 131-206, looked up)
chain: EQDTIPVSGSTGFDRGLEAEKILGASDNNGRLTFLIQFKGVDQAEMVPSSVANEKIPRMVIHFYQERLSWYSDNED
B10: HP1a-CSDΔ204 (residues 131-203) (domain or fragment, D. melanogaster, UniProt P05205 131-203, looked up)
chain: EQDTIPVSGSTGFDRGLEAEKILGASDNNGRLTFLIQFKGVDQAEMVPSSVANEKIPRMVIHFYEERLSWYSD

Tests used:
AUC [1] = biological target: the molecule itself; test: AUC
AUC [2] = biological target: the molecule itself; test: AUC; remark: listed apart in the source
AUC [3] = biological target: the molecule itself; test: AUC; remark: listed apart in the source
SEC = biological target: the molecule itself; test: SEC
[4] = biological target: B2; test: fluorescence polarisation
[5] = biological target: B10; test: fluorescence polarisation
[6] = biological target: B9; test: fluorescence polarisation
[7] = biological target: T1, HP1a-CSD A174E (residues 131-206) (D. melanogaster, UniProt P05205 131-206, A174E); test: fluorescence polarisation
T1 sequence (looked up): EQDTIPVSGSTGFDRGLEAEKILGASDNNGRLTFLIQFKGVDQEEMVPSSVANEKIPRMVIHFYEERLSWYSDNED

[8] = biological target: B6; test: fluorescence polarisation
[9] = biological target: B1; test: fluorescence polarisation
[10] = biological target: T2, HP1a-CSD I191E (residues 131-206) (D. melanogaster, UniProt P05205 131-206, I191E); test: fluorescence polarisation
T2 sequence (looked up): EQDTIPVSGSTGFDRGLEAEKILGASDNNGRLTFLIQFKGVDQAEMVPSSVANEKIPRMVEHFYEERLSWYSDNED

[11] = biological target: B1; test: fluorescence polarisation; remark: listed apart in the source
[12] = biological target: B1; test: NMR titration

Binder: B1
- Kd (AUC [1]): 1.6 ± 0.4 µM
- Kd (AUC [2]): 3 ± 0.2 µM

Binder: B2
- Kd (AUC [3]): 5.8 ± 0.6 µM
- stoichiometry N (SEC): 2

B3: PIWI peptide, N-terminal fluorescein (peptide)
peptide: fluorescein-TSRGSGDPRVKVFRGSSSGDY
- Kd [4]: > 2000 µM
- Kd [5]: 60 ± 2 µM
- Kd [6]: 97 ± 12 µM
- Kd [7]: 101 ± 6 µM
- Kd [8]: 1.7 ± 0.1 µM
- Kd [9]: 20 ± 0.5 µM
- Kd [10]: > 2000 µM

B4: CG15356 peptide, N-terminal fluorescein (peptide)
peptide: {fluorescein″}-SEGRRLYPLLPRISPQTALSIVANDLAESD
- binding result [11]: binds

B5: HP2 peptide wild type (LCVKI), N-terminal fluorescein (peptide)
peptide: {fluorescein″}-QNISPRKLCVKINRRPYNKWLR
- Kd [9]: 0.14 ± 0.07 µM

Binder: B6
- Kd (AUC [2]): 19 ± 1 µM

B7: HP2 peptide Cys to Ser mutant (LSVKI), N-terminal fluorescein (peptide)
peptide: fluorescein-QNISPRKLSVKINRRPYNKWLR
- Kd [4]: > 500 µM
- Kd [5]: 4.9 ± 0.6 µM
- Kd [6]: 3.7 ± 0.4 µM
- Kd [7]: 1.26 ± 0.12 µM
- Kd [8]: 0.044 ± 0.007 µM
- Kd [9]: 0.3 ± 0.02 µM
- Kd [10]: > 400 µM

B8: AF10 peptide, N-terminal fluorescein (peptide)
peptide: {fluorescein″}-PATTSPLVVLSNQLPLNSVAASY
- binding result [11]: binds

Binder: B9
- Kd (AUC [2]): 4.3 ± 0.4 µM

Binder: B10
- Kd (AUC [2]): 2 ± 0.2 µM

B11: PIWI peptide as used in NMR (peptide)
peptide: TSRGSGDPRVKVFRGSSSGDY
- binding result [12]: binds
